Assay: yeast display, Sf9 membrane polyspecificity reagent, FACS + sequencing; frameworks hold sequencing errors
How it was run: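 Galactose induction of a Saccharomyces cerevisiae BJ5465 synthetic nanobody display library ran 36–48 hours. The cells were then stained for 1 hour at 4 °C with 10% biotinylated, detergent-solubilized Sf9 membrane reagent, pulled down on streptavidin microbeads and FACS-sorted into low and high (top ~1%) gates on expression and reagent-binding fluorescence. Labels for polyreactivity follow the gate of origin.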

| Sequence | polyreactivity (PSR sort gate) |
| --- | --- |
| QVQLVESGGRLVQAGGSLRLSCAASGRIFASNAMGWYRQAPGKERELVAAITTTGGSTYYADSVKGRFTISRDNAKNTVYLQMNSLKPEDTAVYYCAARAIPRVRRYGSMNYWGQGTQVTVSS | high polyreactivity |
| QVQRVESGGGLVQAGGSLRLSCAASGIIFPHNAMGWYRQAPGKERELVATISRSGARTYYADSVKGRFTISRDNAKNTVYLQMNSLKPEDTAVYYCAVQRLVYVYGAYDYWGQGTQVTVSS | high polyreactivity |
| QVQLVESGGGLVQAGGSLRLSCAAYGRTFPLYAMGWYRQAPGKEREFVAAISSRGGRTYYADSVKGRFTISRDNEKNTVYLQMNSLKPEDTAVYYCNARYVHDGFDYWGQGTQVTVSS | high polyreactivity |
| QVQLVESGGGLVQAGGSLRLSCAASGRIFRYYAMGWYRQAPGKERELVAAITQRGGSTYADSVKGRFTISRDNAKNTVYLQMNSLKPEDTAVYYCAYRGSFLYDYWGQGTQVTVSS | low polyreactivity |
| QVQLVESGGGLVQAGGSLRLSCAASGSTFDPNAMGWYRQAPGKERELVAAITSGGSTYYADSVKGRFTISRDNAKNTVYLQMNSLKPEDTAVYYCNAPLEWGVYAAQNWDDGYWGQGTQVTVSS | low polyreactivity |
| QVQLVESGGGLVQAGGSLRLSCAASGRTFYGYAMGWYRQAPGKERELVATITSGGSTKYADSVKGRFTISRDNAKNTVYLQMNSLKPEDTAVYYCAARTGGHRGYDYWGQGTQVTVSS | low polyreactivity |
| QVQLVESGGGLVQAGGSLRLSCAASGFTFSQYAAMGWYRQAPGKERELVAAINISGSTNYADSVKGRFTISRDNAKNTVYLQMNSLKPEDTAVYYCNADVAPGIFYGYDSWGQGTQVTVSS | low polyreactivity |
| QVQLVESGGGLVQAGGSLRLSCAASGSTFTYYAMGWYRQAPGKERELVAAISNSGTSTYYADSVKGRFTISRDNAKNTVYLQMNSLKPEDTAVYYCNAYSDLFGSYTDLGEYDYWGQGTQVTVSS | low polyreactivity |
| QVQLVESGGGLVQAGGSLRLSCAASGRIFGDYAMGWYRQAPGKERELVAGINFSGGSTYYADSVKGRFTISRDNAKNTVYLQMNSLKPEDTAVYYCNVDSSTIWYLVPGDYWGQGTQVTVSS | low polyreactivity |
| QVQLVESRGGLVQAGGSLRLSCAASGIIFYQYAMGWYRQAPGKERELVAAITRSGGSTYFADSVKGRFTISRDNAKNTVYLQMKSLKPEDTAVYYCAARPFHSGYEGYGYWGQGTQVTVSS | high polyreactivity |
| QVQLVESGGGLVQAGGSLRLSCAASGSTFYRYAMGWYRQAPGKEREFVAAISRSGGSTYYADSVKGRFTISRDNAKNTVYLQMNSLNPEDTAVYYCNALNYRYRKYDYWGQGTQVTVSS | high polyreactivity |
| LVHLQESGGGLVHAGGGLRLSCAASGNIFTYVIMGWYRQPPVKERELVAAITYGTITNYADSVKGPFTISRDNAKITVDLQMKCLKPEDSAEYHCAVQSPRIEPRLYYWGQGTEVTVSS | high polyreactivity |
| QVQLVESGGGLVQAGGSLRLSCAASGSTFHYYAMGWYRQAPGKERELVATITRRGDSTYYADSVKGRFTISRDKAKNTVYLQMNSLKPEDTAVYYCATRYWRSGYDWPYGYWGQGTQVTVSS | high polyreactivity |
| QVHLVESGGGLVQAGGSLRLSCAASGRTIQTYTMGWYRQAPGKERELVAVITTRGGRTYYADSVKGRFTISRDNAKNTVYLQMNILKPEDTGVYYCNKGITTRSVRSYDYWGQGTQVTVSS | high polyreactivity |
| QVQLVESGGGLVQAGGSLRLSWAASGSKSCADVMGWYRPEPGKERELLAAISSGTSTYYADSVKGRFTISRDNAKNTVYLQMNSLKPEDTGVYYCAAYYYSYPTNGGYGYCGQGTQVTVSS | low polyreactivity |
| QVQLVESGGGLVQAGGSLRLSCAASGRIFPGYAMGWYRQAPGKERELVASISRTGRTNYADSVKGRFTISRDNAKNTVYLQMNSLKPEDTAVYYCAAEYYHSSYGYGYWGQGTQVTVSS | low polyreactivity |
| QVQLVESGGGLVQAGGSLRLSCAASGFTFPHYAMGRYRQAPGKERELVAAINGGDTRTYYADSVKGRFTSSRDNAKNTVYLQRNSLKPEDTAVYYCAADREAGGTRLSRDYYWGQGTQVTVSS | high polyreactivity |
| QVQLEESGGGLVKAGGSLRLTCAASGIIFVEYAMGWYRQAPGKERELVARIRYSGGSTYYADSVKGRFTISRDNAKNTVYLQMNSLQPEDTAVYYCNALLPYIYDYWGKGTQVTVSS | low polyreactivity |
| QVQLVESGGGLVQAGGSLRLSCAASGSTFSTYAMGWYRPAPGKERELVAAISRRGTNTYYADSVKGRFTISRDNAKNTVYLQMNSLKPEDTAVYYCAARSRSLRVYNRVYEVNEMDYWGQGTQVTVSS | low polyreactivity |
| QVQLVESGGGIVQAGGSLRLSCAASGSTFDRYAMGWYRQAPGKERALVAAISWSGGSTYYADSVKGRFTISRDNAKNTVFLQMNSLKPEDTAVYYCNTASYYRRFHKYDYWGQGTQVTVSS | high polyreactivity |
| QVQLVESGGGLVQAGGSLRLSCAASGYIYIRNAMGWYRQAPGKERELVAAISCTGGSTYYADSVKGRFTISRDNAKNTVYLQMKILKPEDTAVYYCNKYYRAWLLWDYGYWGQGTQVTVSS | high polyreactivity |
| QVQLVESGGGLVQAGGSLRLSCAASGRIFTYYTMGWYRQAPGKERELVAAISYSGRTYYADSVKGRFTISRDNAKNTVYLQMNSLKPEDTAVYYCNAARPRGYGFDYWGQGTQVTVSS | high polyreactivity |

| Sequence | polyreactivity (PSR sort gate) |
| --- | --- |
| QVQLVESGGGLVQAGGSLRLSCAASGVNAMGWYRQAPGKEREFVAAITSIGGSTYYADSVKGRFTISRDNAKNTVYLQLNSLKPEDTAVYDCNTDRGPVKVSPLYESWGQGTQVTVSS | low polyreactivity |
| QVQLVESGGGLVQAGGSLRLSCAASGSIFHYNAMGWYRQAPGKERELVARISVNGGRTYYADSVKGRFTISRDNAKNTVYLQMNSLKPEDTAVYYCAVEGVWRSFFYGYDSWGQGTQVTVSS | low polyreactivity |
| QVQLVESGGGLVQAGGSLRLSCAASGSIFKPYSMGWYRQAPGKERELVAAISTRRSSTYYADSVKGRFTFSRDNAKNTVYLQMNSLIQEDTAVYYCAKRRYLWGYEYDSWGQGTQVNVSS | high polyreactivity |
| QVQLVESGGGLVQAGGSLRLSCAASGCIFYINTMGWYRQAPGKERELVAAISQSGVGTSYADSVKGRFTISRDNAKNTVYLQMNSLIPEDTAVYYCATDFARSDVVERFDYWGQGTQVTVSS | low polyreactivity |
| QVQLVESGGGLVQAGGSLRLSCAASGLIFSKNVMGWYRQAPGKERELVAAISQRGGSTYYADSVKGRFTISRDNAKNTVYLQMNSLKPEDTAVYYCAADNTVSHEDYWGQGTQVTVSS | high polyreactivity |
| QVQLVESGGGLVQAGGSLRLSCAASGSIFNWYAMGWYRQAPGKERELVAAISSSGSTNYADSVKGRFTISRDNAKNTVYLQMNSLKPEDTAVYYCNADEYYLNNYNYGYWGQGTQVTVSS | low polyreactivity |
| QVQLVESGGGLVQAGGSLRLSCAASGLTFRLNAMGWYRQAPGKERELVAAITAIGDRTYYADSVKGRFTISRDNAKNTVYLQMNSLKPEDTAVYYCNVTPRRAQVRIGNYWGQGTQVTVSS | high polyreactivity |
| QVQLVESGGGLVQAGGSLRLSCAASGITLSIYAMGWYRQAPGKERELVAAINGNGGSTYYADSVKGRFTISRDNAKNTVYLQMNSLKPEDTAVYYCAVTDYVYEHDDYWGQGTEVTVSS | low polyreactivity |
| QVQLVESGGGLVQAGGSLRLSCAASGSIFAQYGLGWYRQAPGKERELVADISGPGVSTYYADSVKGRFTISRDNAKNTVYLQMNSLKPEDSAVYYCAADYYYPYYWGQGTQVTVSS | low polyreactivity |
| QVQLVESGGGLVQAGGSLRLSCAASGRTFYHNAMGWYRQAPGKERELVAAITSSGGRTYYADSVKGRFTISRDNAKNTVYLQMNSLKPEDTAVYYCNARYLGGQVRYWYYNKYDYWGQGTQVTVSS | high polyreactivity |
| QVQLVESGGGLVQAGGSLRLSCAASGITLAWYAMGWYRQAPGKERELVAAINSGGSTYYADSVKGRFTISRDNAKNTVYLQMNSLKPEDTAVYYCKTDDDSSSTGYYSWGQGTQVTVSS | low polyreactivity |
| QVQLVESGGGLVQAGGSLRLSCAASGSTFIGNAMGWYRQAPGKEREFVATISQNGGRTYYADSVKGRFTISRDNAKNTVYLQMNSLKPEDTAVYYCAADDWRWGYDYWGQGTQVTVSS | high polyreactivity |
| QVQLVESGGGLVQAGGSLRLSCAASGSTFGYYAMGWYRQAPGKERELVASINWRGDSTYYADSVKGRFTISRDNAKNTVYLQMNSLKPEDTAVYYCNVKPSARGSPLYDYWGQGTQVTVSS | high polyreactivity |
| QVQLVESGGGLVQAGGSLRLSCAPPDLPSVVMLWDGIDRRLGKKGSSLPLLLLLVVSHADSVKGRFTISRDNAKNTVYLQMNSLKPDDTAVYYCAVAVLPWQLYSESYAEYDYWGQGTQVTVSS | low polyreactivity |
| QVQLVESGGGLVQAGGSLRLSCAASGFIFWQYTMAWYRQAPGKERELVAAISFSGGRTYYADSVKGRFTISRDNAKNTVYLQMNSLKPEDTAVYYCAASAVPRQKGFYYWGQGTQVTVSS | high polyreactivity |
| QVQLVESGGGLVQAGGSLRLSCAASGRTFKRNAKGWYRQAPGKERELVAAISGTGASTYYADSVKGRFTISRDNAKNTVYLQMNSLKPEDTAVYYCAKYRYISNPVYLGDYWGQGTQVTVSS | high polyreactivity |
| QVQLVESGGGLVQAGGSLRLSCAASGSIFDHTKAMGRYRQSPGKERELVAGITRGGSTNYADSVKGRFTISRDNAKNTFYLQMNSLKPEDTAVYYCAKAMPAKFYSEAGYDYWGQGTQVTVSS | low polyreactivity |
| QVQLVESGGGLVQAGGSLRLSCAASGITFSFYALGWYRHAPGKERELVAAISRGGASTYYADSVKGRFTISRDNAKNTVYLQMNSLKPEDSAVYYCAALSVDERYDYWGQGTQVTVSS | low polyreactivity |
| QVQLVESGGGLVQAGGSLRLSCAASGSIFLFNAMGWYRQAPGKERELVAAINRDDSTYYADSVKGRFTISRDNAKNTVYLQMNSLKPEDTAVYYCAAPVLHASYGYGYWGQGTQGTVSS | low polyreactivity |
| QVQLVESGGGLVQAGGSLRLSCAASGSTFYQYAMGWYRQAPGKERELVAAISRISGSTSYADSVKGRFTISRDNAKNTVYLQLYSLKPEDTAVYYCAKGTAPIPYRGRVGTSKSDYWGQGTQVTVSS | low polyreactivity |
| QVQLVESGGGLVQAGGSLRLSCAASGLTFSIYAMGWYRQAPGKERELVAGISQSGGSTYADSVKGRFTISRDNAKNTVYLQMNSLKPADTAVYYCAKEFEWVGSPSTVDGLDYWGHGTQVTVSS | low polyreactivity |

Reference: the nanobody polyreactivity screen of Harvey et al. (2022)
